For this test, the target named is Abi1, endogenous in mouse fibroblasts (mouse (endogenous in MEFs)) (UniProt Q8CBW3). The experiment in a line: co-IP.

From publication PMC2172734 come the findings set out here.

UniProt Q8CBW3, sequence (Q8CBW3 whole entry): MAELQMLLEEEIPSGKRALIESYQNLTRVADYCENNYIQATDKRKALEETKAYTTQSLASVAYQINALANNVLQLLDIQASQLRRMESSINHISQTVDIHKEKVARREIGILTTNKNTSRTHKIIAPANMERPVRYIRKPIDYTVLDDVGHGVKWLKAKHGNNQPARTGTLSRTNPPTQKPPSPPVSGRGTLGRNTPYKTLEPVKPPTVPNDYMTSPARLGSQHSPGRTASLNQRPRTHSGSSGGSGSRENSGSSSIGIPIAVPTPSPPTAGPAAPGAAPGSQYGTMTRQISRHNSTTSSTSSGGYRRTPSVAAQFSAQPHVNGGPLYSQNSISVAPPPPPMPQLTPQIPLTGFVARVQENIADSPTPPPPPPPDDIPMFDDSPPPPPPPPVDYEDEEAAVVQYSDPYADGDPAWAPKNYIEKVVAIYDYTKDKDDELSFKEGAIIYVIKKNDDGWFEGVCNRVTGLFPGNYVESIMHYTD

As to “p85 (regulatory subunit of class I PI3K), endogenous in mouse fibroblasts (from UniProt P26450 1-724) (natural protein)”, the percent of total p85 associated with Abi1 immunoprecipitates turned out to be 1%.
